# The RNAGym collection of RNA variant scans (doi:10.1073/pnas.2313332121)
# B1: TPR t1 (parent)
# chain: GACCAAUCUGCCCUCAGAGCUCGAGAACAUCUUCGGAUGCAGAGGAGGCAGGCUUCGGUGGCGCGAUAGCGCCAACGUCCUCAACCUCCAAUGCAUCCCACCACAUGAUGAUGCCUGAAGAGCCUUGGUUUUUUG
# Variants of: B1
# Experiment: polymerase ribozyme fitness, log enrichment relative to wild type (log ratio); higher = more active; in vitro selection for triplet polymerase activity
# Outline: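 Frozen incubation at −7 °C formed the core of a single, triplicate in vitro selection round applied to PCR-built, transcribed mutant libraries of each subunit of a heterodimeric triplet polymerase ribozyme. Extended constructs were gel-excised, captured with streptavidin beads and amplified by RT-PCR, and input and output libraries were Illumina-sequenced with a filter of ≥10 input reads and ≥1 read per output. Fitness is the logarithm of genotype enrichment relative to wild-type enrichment, with inverse-variance-weighted replicate averaging, and the logarithm is base 2.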
row,Variant,polymerase ribozyme fitness (log ratio)
1,A2U G47A C72A A121G,-0.127
2,G69A C123A,-1.81
3,C72A G117C,-4.09
4,C13A C97U,-2.68
5,C56U C82A U106G G117U,-4.65
6,A26C C73A U81C C88A A108G C114G A119U,-6.8
7,C8U C62U,0.699
8,G52U G61U,-0.708
9,A41U G63A U78A A83U,-4.53
10,C11G G48U G61A C73A A90G,-2.19
11,C15G U96G G120A,-1.53
12,C11G A18U C72A A91U G110C,-5.23
13,U54G C80A C88A,-4.43
14,C34U G52U G69C C79G A100G C114U,-5.24
15,U59A C101U C124A,1.59
16,C13A A43C G93C,-5.21
17,A18G C28A U112A,-4.92
18,U7A G10C G57U C88G,-2.78
19,C72U C79G,-1.97
20,C53U C72U G77U C82G A111C,-1.23
21,C11G C40A G122A G127U,-1.57
22,C11U C15A C101G,-3.87
23,G47U C53A U106C,-0.879
24,U9C G17A A18G G69U G113U,-4.32

row,Variant,polymerase ribozyme fitness (log ratio)
1,C15G C98U A111G,-5.41
2,C76U G117C,-3.98
3,G61A G117U,-2.02
4,C28G C62G C98U C124U,-5.55
5,C31U C89U U96A U106G U112A U130C,-4.19
6,G39U G47C G57U A84C,-3.89
7,C12U G120U,2.06
8,C15U U54A C80A,-4.07
9,A26U A50C C56A C124A,-2.3
10,C22A A26U A27U C76U A95G G110A,-6.96
11,U9G G45U U92C U129G,-1.65
12,A2C G47C C123G,-2.2
13,C12U C34A,-2.28
14,C11U A16C G63A,-3.2
15,G117A C123A,-0.382
16,C4A C11U G69U C97G,-3.61
17,G39C G69C,-2.22
18,C40U G52U C62U,-1.16
19,C73A U87C,0.572
20,A5U G10A A41G G61A C101U U133G,-0.742
21,G107A G122A,-5.18
22,U7A G63A C89U,-1.1
23,C11U C56G C88U G120C G122U G127A,-0.748
24,G19C U55A C64U A66U C104U,-3.86

row,Variant,polymerase ribozyme fitness (log ratio)
1,C11G C20A C53G U132A,-2.13
2,G44A C49A C76A U106A,-3.36
3,C13U U59A G60A C80U A95C G120U,-1.94
4,C3A A66U G69U,-1.08
5,G71C C85U U92C,-4.52
6,C89A G93A G120A,-1.81
7,C15G U59G,-2.27
8,C28G G48U,-3.56
9,A29G C64U C104A U106A U112C,-0.729
10,G39U G51A,-3.64
11,C56G G69C A83C C104U,-5.43
12,A37U G52A C56A G110C A118U,-5.47
13,G45C C49U C56G A121C,-0.675
14,G44C C53G,-1.05
15,A68G C86U,-2.68
16,A37C A43U C49G,-3.33
17,A27U C56U,-3.04
18,C12A U96A A121G,-0.355
19,A41C U55A C102U,-3.43
20,A6G C11U,-0.107
21,C11G C40A,-1.54
22,A2C C49G U67G A84G G110U,-5.64
23,G45U A105U,-3.16
24,A43C U78A C82A,-3.68

row,Variant,polymerase ribozyme fitness (log ratio)
1,C3U C13U A41G G61U C79A C85U G120U G127C,-3.54
2,U14C G44U,-3.05
3,C88G C94A A111C U133A,-3.52
4,C15A G120U,-1.44
5,U21A C53U C85U,-2.21
6,G39U G60A U78C G127U,-2.06
7,C13U A91U,-0.839
8,C73G U96G C102A,-3.86
9,C8U G48C G69U,0.0683
10,A2C C49A G93U G110A,-4.44
11,G44A C72A G117A,-2.9
12,G44C C70G,-3.8
13,G17A G39U G113C,-6.88
14,C40U G44A G63A,-1.6
15,C62A A105G,-4.17
16,C73U C104U,0.0551
17,G17C U54G G61A C94A U112G,-6.29
18,A83U C88A G128C,-3.29
19,C56A G93A,-0.661
20,C98A C123U,-4.06
21,U9G G71U,0.107
22,C13G C22U G63U C79U G122A,-7.09
23,C12U G39C G127C U133A,-1.79
24,C15A G71U C104A,-4.07

row,Variant,polymerase ribozyme fitness (log ratio)
1,C12U G61C,-1.48
2,C13A C53A,-0.605
3,G17U C49U C124G G127C,-0.942
4,C8U G69U C115A,1.59
5,C8U C22G G39C A41G G63A A118U,-3.78
6,C3U C72A,-0.325
7,C12G C13U G52U G61U C102U A121U G122C,-1.95
8,C12A U133G,-1.24
9,U81A G113C U130G U132A,-3.31
10,U87C A95U C102A C124A G128C,-3.08
11,C56A G61A A111G U125C,-2.99
12,C8G G44A C101U,-0.462
13,A27U G44U C101G A111C,-7.22
14,U81A U87A,-1.41
15,C13G,-1.53
16,G48C C85A,-2.11
17,C4A A6C A46C C49A C70A C72G A84C A119U C123A U126G,-6.91
18,G42A G60U C114G U129C,-3.48
19,G39U G93A C123A,-1.36
20,G17U G19U G69U A84U G93A,-4.27
21,A68G U106A,-3.22
22,G57U A119G,1.22
23,C8U U78G C98U,-0.651
24,G52U G93U,-1.93

row,Variant,polymerase ribozyme fitness (log ratio)
1,G10U G63A U112A,-0.981
2,U9G G48U,-1.27
3,C89A C114U,-0.329
4,C8G C64U G135U,0.0899
5,A18U A50U C99G A100C A108U C124G,-8.04
6,C72A C114G,-2.31
7,U30C C40U G120C,-2.45
8,U33G G39A C72G A84G A111U,-6.45
9,C12A C70A G127U,-2.31
10,A6C C11G G36U C40G U106A U130A,-4.89
11,A29G A90C U92C,-3.09
12,C22U C56A C72A A83C U96A,-5.56
13,G36U G63A C97U,-1.35
14,U81A A105U U132C,-2.04
15,G60A A100U U129A,-2
16,C13U A16C G48C U59G G60U A100C A121C,-0.128
17,C76G C98A,-4.09
18,A5U C56G A74U G110A U116G C124G G135U,-6.08
19,G36U G117U,-3.26
20,U59A G61U A84U,-0.153
21,C4U G63A,-1.64
22,U7G C12G G58A C72U,0.394
23,C53U A91C U92A G122A,-4.02
24,A2C G42U,-3.31

row,Variant,polymerase ribozyme fitness (log ratio)
1,G57C C73A G117C,-4.45
2,A121C G128A,0.0676
3,G71A U78G A84U,-2.58
4,C73G C102U A119G,-1.29
5,G61C C104A,-3.92
6,C89A G120U,-1.79
7,G36A U125A,-1.27
8,C15G A95U C98U,-5.14
9,C3U C72U U106C,-1.21
10,C8A A83C A100C,-0.702
11,C11U C64U U78C,-0.654
12,G44C C94U,-1.02
13,G117A A121C,-0.623
14,A5U U54C G69A U112C,-0.469
15,C3U C72G A90U U106A,-1.94
16,A6U C49U C53U A84C,-0.896
17,G25U C56U C123G,-6.4
18,C4A C98U,-2.2
19,G117C U131A,-4.01
20,C34U C72A,-3.94
21,C8A G44U G52A,-0.478
22,A29U A46U U106A,-2.03
23,G44C C88G,-2.18
